# Test results reported in patent US20180031580A1, “USE OF IGF-1 AS PROGNOSTIC FACTOR IN CALCIFICATION OF AORTIC VALVES” (THE ASAN FOUNDATION, priority 2015, published 2018).
# B1: DPP-4: antigenic enzyme, membrane-bound glycoprotein, also referred to as CD26; cleaves two N-terminal peptides including proline (protein)
# chain: NKGTDDATADSRKTYTLTDYLKNTYRLKLYSLRWISDHEYLYKQENNILVFNAEYGNSSVFLENSTFDEFGHSINDYSISPDGQFILLEYNYVKQWRHSYTASYDIYDLNKRQLITEERIPNNTQWVTWSPVGHKLAYVWNNDIYVKIEPNLPSYRITWTGKEDIIYNGITDWVYEEEVFSAYSALWWSPNGTFLAYAQFNDTEVPLIEYSFYSDESLQYPKTVRVPYPKAGAVNPTVKFFVVNTDSLSSVTNATSIQITAPASMLIGDHYLCDVTWATQERISLQWLRRIQNYSVMDICDYDESSGRWNCLVARQHIEMSTTGWVGRFRPSEPHFTLDGNSFYKIISNEEGYRHICYFQIDKKDCTFITKGTWEVIGIEALTSDYLYYISNEYKGMPGGRNLYKIQLSDYTKVTCLSCELNPERCQYYSVSFSKEAKYYQLRCSGPGLPLYTLHSSVNDKGLRVLEDNSALDKMLQNVQMPSKKLDFIILNETKFWYQMILPPHFDKSKKYPLLLDVYAGPCSQKADTVFRLNWATYLASTENIIVASFDGRGSGYQGDKIMHAINRRLGTFEVEDQIEAARQFSKMGFVDNKRIAIWGWSYGGYVTSMVLGSGSGVFKCGIAVAPVSRWEYYDSVYTERYMGLPTPEDNLDHYRNSTVMSRAENFKQVEYLLIHGTADDNVHFQQSAQISKALVDVGVDFQAMWYTDEDHGIASSTAHQHIYTHMSHFIKQCFSLP
# Key:
# [1] = system: aortic valve vascular smooth muscle tissue; test: ALP staining of aortic valve vascular smooth muscle tissue, osteocytogenesis level; type: in vivo, mice; details: wild-type or eNOS-deficient mice treated with DPP-4 and IGF-1 at the same time; FIG. 2a
# Procedure: Wild-type mice or eNOS-deficient mice which are animal models with the aortic valve calcification were treated with insulin-like growth factor type 1 (IGF-1) alone or treated with dipeptidyl-peptidase 4 (DPP-4) and IGF-1 at the same time. Then, ALP staining was performed on the aortic valve vascular smooth muscle tissue, thereby comparing the […] level of tissue (FIG. 2a). Here, the aortic valve vascular smooth muscle tissue of the wild-type mice treated with nothing or the eNOS-deficient mice was used as a control group.
# FIG. 2a are an image and a graph showing verification of the effect of DPP-4 on an action of IGF-1 inhibiting osteocytogenesis in the aortic valve vascular smooth muscle tissue of the wild-type mice or the eNOS-deficient mice.
# ERK or Akt = test: Western blot of phosphorylation of intracellular signaling proteins ERK or Akt in aortic valve vascular smooth muscle tissue; type: in vivo; details: eNOS-deficient mice treated with IGF-1 and DPP-4, 0, 5, 15 or 30 minutes; FIG. 2b
# Procedure: Further, in order to confirm whether the activation level of the protein involved in intracellular signaling was changed by osteocytogenesis according to DPP-4, the eNOS-deficient mice were treated with IGF-1 alone for 0, 5, 15 or 30 minutes, or treated with DPP-4 and IGF-1 at the same time, and then, the aortic valve vascular smooth muscle tissue was extracted from these mice. Then, a phosphorylation level of ERK or Akt which is a protein involved in intracellular signaling expressed in the extracted tissues was compared by western blot analysis (FIG. 2b). Here, β-actin was used as an internal control group.
# FIG. 2b is a Western blot analysis image showing a change in the phosphorylation level of ERK or Akt which is the protein involved in intracellular signaling according to whether the DPP-4 is treated in the eNOS-deficient mice treated with IGF-1.
molecule,measurement,setting,value
B1,osteocytogenesis of aortic valve vascular smooth muscle tissue (ALP staining),[1],intensified
same,phosphorylation level of ERK or Akt,ERK or Akt,reduced
